According to publication PMC4542545:
pKd: −log10 of the molar value.

Target: taxol stabilized microtubules assembled from MAP-free tubulin from bovine brain (bovine) (UniProt Q6B856)
Experiment: co-sedimentation; 1.5 μM GFP-tagged TPPP/p25 with increasing concentrations of taxol stabilized MTs, 15 min at 37 °C, centrifugation; GFP fluorescence of pellets and supernatants; apparent Kd (likely a composite of MT binding and TPPP/p25 dimerization or oligomerization)

| pKd | Substance |
| --- | --- |
| 5.76 | GFP-tagged TPPP/p25 ΔC(158) (from UniProt O94811 1-157) (domain or fragment) |
| 6.07 | GFP-tagged TPPP/p25 ΔN(49) (from UniProt O94811 50-219) (domain or fragment) |
| 5.84 | GFP-tagged full-length TPPP/p25 (from UniProt O94811 1-219) (natural protein) |
